A word on the Km: it is the substrate concentration at which the rate is half of its maximum.

Data set [1] deals with C[C@H](CCC(=O)O)[C@H]1CC[C@H]2[C@@H]3[C@H](O)C[C@@H]4C[C@H](O)CC[C@]4(C)[C@H]3C[C@H](O)[C@]12C. Kind of data set: Enzyme kinetics (Michaelis-Menten) in microtiter plate photometer, cell lysate. Type of data set: biochemical, Clostridium sp. group P strain 48-50. The settings on record: other: WT; constant 100 µM NADP^+, 6 µM to 10 mM Cholsäure (32 concentrations); nonlinear regression. The source says: (§1) Für jede der Mutanten sowie für das Wildtyp-Enzym wurden Kinetikmessungen im Mikrotiterplattenphotometer durchgeführt, indem die Umsatzraten der Enzyme sowohl mit gleichbleibenden Substratkonzentrationen bei variierten Kofaktorkonzentrationen als auch vice versa aufgezeichnet wurden. Zur Bestimmung der spezifischen Enzymaktivität wurden die Enzymkonzentrationen im Zelllysat densitometrisch bestimmt.
(§2) Zur Ermittlung der Abhängigkeit der Substratumsatzgeschwindigkeit von der Substratkonzentration wurde eine Kofaktorkonzentration von 100 µM NADP^+ eingesetzt, während die Substratkonzentration über einen Bereich von 6 µM bis 10 mM Cholsäure mit 32 verschiedenen Konzentrationen variiert wurde.
(§3) Zur Ermittlung der Abhängigkeit der Substratumsatzgeschwindigkeit von der Kofaktorkonzentration wurde eine Substratkonzentration von 10 mM Cholsäure bezogen auf das Reaktionsvolumen eingesetzt, während die Kofaktorkonzentration über einen Bereich von 2 µM bis 100 µM NADP^+ mit 16 verschiedenen Konzentrationen beim Wildtypprotein bzw. über einen Bereich von 2 µM bis 1000 µM NADP^+ mit 24 verschiedenen Konzentrationen bei den beiden Mutanten variiert wurde (jeweils bezogen auf den Raktionsansatz).
(§4) Über das eingesetzte Volumen an Zelllysat lässt sich die volumenbezogene Enzymaktivität berechnen. Zusammen mit den bestimmten Enzymkonzentrationen lassen sich die spezifischen Enzymaktivitäten berechnen. […]

Data set [2] deals with NC(=O)c1ccc[n+]([C@@H]2O[C@H](COP(=O)([O-])OP(=O)(O)OC[C@H]3O[C@@H](n4cnc5c(N)ncnc54)[C@H](OP(=O)(O)O)[C@@H]3O)[C@@H](O)[C@H]2O)c1. The data set is described as above. It counts as biochemical, Clostridium sp. group P strain 48-50. The settings on record: other: WT; constant 10 mM Cholsäure, 2 µM to 100 µM NADP^+ (16 concentrations); nonlinear regression.
Source text: as §1, §2, §3, §4

With “12α-HSDH (WT), Wildtyp-Enzym, Clostridium sp. group P strain 48-50, SEQ ID NO:6 (Clostridium sp. ATCC 29733)”, the Michaelis-Menten constant (Km) in data set [1] was 136 ± 12 µM; in data set [2], 21,4 ± 2,3 µM.

The values above are taken from EP2441771A1, “New 12alpha-hydroxysteroid dehydrogenase mutants, method for their manufacture and application thereof” (PharmaZell GmbH, priority 2010, dated 2012).
